Laboratory results from patent publication US20260185102A1, “LIGAND-BINDING NUCLEIC ACID COMPLEX” (RENA THERAPEUTICS INC., priority 2021, published 2026).
Values belong to the molecule of their own block, whether it stands above or below them. In the oligonucleotide strings, read from the 5' end, every base follows the letter of its sugar. An asterisk marks phosphorothioate; unmarked linkages are phosphodiester. Other units and linkages are bracketed, terminal groups are in braces. A string of capitals states the bases alone. Where no end group is shown, it is not given here. [ ]: non-standard residue; d: D form. {L001} = PTH1 ligand L001 attached via a dibenzocyclooctyne-succinyl-hexylamino linker; l = locked nucleic acid (LNA); [5mC] = 5-methylcytosine; Aib = CC(C)(N)C(=O)O; d = 2'-deoxy (DNA); m = 2'-O-methyl; r = 2'-OH (RNA)

Assays:
mouse Malat1 ncRNA [1] = experiment: mMalat1 ncRNA expression in mouse liver and kidney after intravenous L001-HDO6 (Example 3); format: in vivo; conditions: c57BL/6J mice, 1 μmol/kg intravenous, Day 3; compared with vehicle and L001 complementary strand groups
Description: The nucleic acid complex used in Example 3 is L001-HDO6, which is a conjugate of 16-mer HDO targeting mouse Malat1 ncRNA prepared in Example 2 and the L001 ligand. The present inventors adjusted the oligo complex to 100 μM with physiological saline (Otsuka Pharmaceutical Co., Ltd.), and double-stranded HDO was subjected to an annealing procedure comprising denaturing at 90° C. for 5 minutes and then naturally cooling to room temperature over a period of about 2 hours in a block bath (CDB-105, AS ONE Corporation).
Species differences in the PTH1 receptor, PTH, and PTHrP are insignificant between humans and mice. […]
Method Mice were divided into groups depending on body weights: the vehicle (saline, Otsuka Pharmaceutical Co., Ltd.) administration group; the L001 complementary strand (1 μmol/kg) administration group; and the L001-HDO6 (1 μmol/kg) administration group (each group consisting of 5 mice (n=5)). […] On the day of autopsy, body weight of each mouse was measured, a blood sample was taken from the heart under anesthesia with isoflurane (introduced at 3% to 5%, maintained at 1% to 3%) (Terumo syringe SS-01P2525, containing the anticoagulant heparin), and mice were euthanized by exsanguination. […]
All the measured values were indicated in terms of “mean±standard deviation.” For statistical analysis, the one-way analysis of variance (ANOVA) was performed using GraphPad Prism 7.04. […]

mouse Malat1 ncRNA [2] = experiment: Malat1 ncRNA expression in mouse kidney after intravenous or subcutaneous PTH1 ligand-HDO (Example 5); format: in vivo; conditions: intravenous, 1 μmol/kg
Description: The nucleic acid complexes used in Example 5 are each a conjugate of 16-mer HDO or ASO targeting mouse Malat1 ncRNA prepared in the example above and the PTH1 ligand. The present inventors adjusted the oligo complex with physiological saline (Otsuka Pharmaceutical Co., Ltd.), the oligo complex for animal evaluation was denatured in a block bath (CDB-105, AS ONE Corporation), and the double-stranded HDO for cell evaluation was subjected to an annealing procedure comprising denaturing at 90° C. for 10 minutes and then naturally cooling to room temperature over a period of about 2 hours in a T100 thermal cycler (Bio-Rad). […]
For mRNA extraction, tissue was fractured by bead crushing using a TissueLyser II (QIAGEN). Total RNA was extracted from the solution containing fractured tissue using the ReliaPrep™ RNA Tissue Miniprep System (Promega Corporation). cDNA was prepared from total RNA by reverse transcription using the PrimeScript™ RT Master Mix (TaKaRa). mRNA expression of each gene was measured using the real-time PCR system (StepOnePlus, Applied Biosystems). […]
All the measured values were indicated in terms of “mean±standard deviation.” Statistical analysis was performed using GraphPad Prism 9.4.0. […]

[3] = Tm of ligand-bound HDO6 duplex; format: physicochemical; conditions: HDO6 with ligand introduced into complementary strand
[4] = Intrarenal distribution, immunostained kidney images after L001-HDO6-Alexa488 (Example 4); format: in vivo, mouse; conditions: 1 μmol/kg, c57BL/6J mice
Description: The fluorescence-labeled ASO comprising Alexa488 bound to the 5′ terminus of the antisense strand (SEQ ID NO: 179) prepared in Example 2 was annealed to the L001 complementary strand (SEQ ID NO: 180) by the method described in Example 2 to form a duplex complex. Thus, the fluorescence-labeled HDO (L001-HDO6-Alexa488) was prepared.
The immunohistochemical test was performed with the use of c57BL/6J mice (12 mice). The fluorescence-labeled HDO (L001-HDO6-Alexa488) was intravenously administered to mice at […] once, a blood sample was taken from the heart under anesthesia with isoflurane 10 minutes, 6 hours, 24 hours, and 72 hours later, the kidney was perfused by left ventricular cannulation with 10 ml of saline followed by 10 ml of 4% paraformaldehyde solution, and the kidney was extracted from the mice. The extracted kidney was soaked in 4% paraformaldehyde to prepare frozen sections. The frozen sections were stained with Nephrin (the primary antibody: mouse Nephrin affinity purified polyclonal antibody, Goat IgG (AF3459), R&D Systems) and Alexa Fluor 594 (the secondary antibody: chicken anti-goat IgG (H+L) (A-21468), Invitrogen) to observe the renal glomerulus, and the frozen sections were stained with a DAPI (4′,6-diamidino-2-phenylindole) solution to observe the DNA-containing cell nuclei. The fluorescent images of the pathological sections were incorporated with the use of the Olympus VS120 Slide Scanning System.
The photograph in the lower right is an image obtained by superposing the aforementioned 3 photographs superposed on top of each other (merged).

[5] = target: T1, mouse Pth1R (mPth1R), stably expressed on NIH/3T3 cells (mouse, UniProt P41593 27-591); experiment: cell-based or functional assay
T1 sequence (looked up): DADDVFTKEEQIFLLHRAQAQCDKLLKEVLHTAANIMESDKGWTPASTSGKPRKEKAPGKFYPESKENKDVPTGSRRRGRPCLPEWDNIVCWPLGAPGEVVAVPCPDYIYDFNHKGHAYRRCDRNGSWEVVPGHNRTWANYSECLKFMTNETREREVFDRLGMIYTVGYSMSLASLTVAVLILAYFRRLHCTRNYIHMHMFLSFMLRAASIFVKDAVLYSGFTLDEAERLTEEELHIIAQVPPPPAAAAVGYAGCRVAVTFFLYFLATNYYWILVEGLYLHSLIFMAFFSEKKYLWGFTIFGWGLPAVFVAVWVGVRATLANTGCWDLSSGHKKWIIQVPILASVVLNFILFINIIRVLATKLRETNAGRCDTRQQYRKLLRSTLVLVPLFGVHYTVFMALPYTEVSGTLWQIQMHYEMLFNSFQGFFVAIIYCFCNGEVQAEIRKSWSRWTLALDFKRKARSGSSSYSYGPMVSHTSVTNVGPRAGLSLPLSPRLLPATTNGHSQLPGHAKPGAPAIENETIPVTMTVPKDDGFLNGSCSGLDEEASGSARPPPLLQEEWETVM

[6] = 10 minutes after single intravenous administration

Molecule: L001-HDO6: HDO targeting mouse Malat1 ncRNA: antisense strand SEQ ID NO: 179, complementary strand SEQ ID NO: 180 bound to PTH1 ligand L001 (antisense l[5mC]*lT*lA*dG*dT*dT*dC*dA*dC*dT*dG*dA*dA*lT*lG*l[5mC]; sense {L001}-mG*mC*mA*rUrUrCrArGrUrGrArArC*mU*mA*mG)
- mMalat1 ncRNA expression level in the kidney (mouse Malat1 ncRNA [1]): lowered in the L001-HDO6 administration group to a significant extent
- mMalat1 ncRNA expression level in the liver (mouse Malat1 ncRNA [1]): lowered in the L001-HDO6 administration group to a significant extent
- Malat1 ncRNA expression in the kidney (mouse Malat1 ncRNA [2]; Day 3, compared with the saline administration group): lowered to a statistically significant extent
- Malat1 ncRNA expression in the kidney (mouse Malat1 ncRNA [2]; Day 3, in comparison with HDO without ligand): lowered to a statistically significant extent
- Tm [3]: 64 °C
- fluorescence Alexa-488 in the glomerulus ([4]; 6, 24, or 72 hours after single intravenous administration): no fluorescence was observed
- fluorescence Alexa-488 in kidney tubular cells [4, 6]: observed
- fluorescence Alexa-488 in the glomerulus [4, 6]: slightly observed
- fluorescence Alexa-488 in kidney tubular cells ([4]; 6 hours after single intravenous administration): intensified
- fluorescence Alexa-488 in kidney tubular cells ([4]; 24 hours after single intravenous administration): maximum fluorescence was observed
- fluorescence Alexa-488 in kidney tubular cells ([4]; 72 hours after single intravenous administration): still observed in many kidney tubules

Molecule: AVSEHQLLHDKGKSIQDLRRRELLEKLLAKLHKA (not fully specified (residue 33)) [L001-ASO]
- IC50 of lowering Malat1 ncRNA expression level in the mPth1R-stably expressing cell line [5]: 1.25 nM

Molecule: SEHQLLHDKGKSIQDLRRRELLEKLLAKLHKA (not fully specified (residue 31)) [L003-HDO6]
- IC50 of lowering Malat1 ncRNA expression level in the mPth1R-stably expressing cell line [5]: 88.9 nM

More lines, now with the values ahead:

- IC50 of lowering Malat1 ncRNA expression level in the mPth1R-stably expressing cell line [5]: 46.8 nM
Molecule: AVSEHQLLHDKGKSIQDLRRRELLEKLL[Aib]KLHTAK (not fully specified (residue 35); also: prints K at position 33) [L021-HDO6]

- IC50 of lowering Malat1 ncRNA expression level in the mPth1R-stably expressing cell line [5]: 167 nM
B1: L010-HDO6 (peptide)
peptide: DKGKSIQDLRRRELLEKLLAKLHKA
modifications: not fully specified (residue 24); printed as DKGKSIQDLRRRELLEKLLAKLH(K-PEG3-Unit)A

- IC50 of lowering Malat1 ncRNA expression level in the mPth1R-stably expressing cell line [5]: 121 nM
B2: L005-HDO6 (peptide)
peptide: HQLLHDKGKSIQDLRRRELLEKLLAKLHKA
modifications: not fully specified (residue 29); printed as HQLLHDKGKSIQDLRRRELLEKLLAKLH(K-PEG3-Unit)A
